Reference: the supplement of paper PMC10567573

B1: CHMP4C (parent)
chain: TNIRLPNVPSSSLPAQPNRKPGMS

Variants of: B1
Assay: protein stability index of a GFP-peptide fusion (GPS, HEK-293T) (PSI 1-6); higher = more stable
Settings: c terminus: a fixed tail appended
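Also: lentivirally expressed fusions sorted by FACS into six bins by GFP to DsRed ratio, PSI derived from sequencing read proportions per bin multiplied by bin number.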

Protein stability index: each site, then its substitutions
P14: R 4.4, Q 4.98, N 4.41, W 4.01, V 4.93, T 4.39, I 4.22, H 4.37, G 4.67, C 3.94, S 4.69, M 4.47, Y 3.67, F 4.22, K 4.39, L 4.19, A 4.14, E 4.7, D 4.5
L13: F 4.35, V 4.88, D 4.4, E 4.25, R 4.82, H 4.25, M 4.6, K 4.46, N 4.52, A 4.88, Y 4.1, T 5.11, I 4.54, Q 4.09, W 4.45, S 4.76, C 4.47, G 4.27
A15: T 4.55, E 4.64, H 4.59, K 4.58, M 4.16, P 4.71, Y 4.26, G 4.69, C 4.54, D 4.75, F 4.21, I 4.34, R 4.71, V 4.59, S 4.56, W 4.01, Q 5.06, N 4.44, L 4.19
N18: W 3.42, R 4.69, S 4.21, I 4.3, Y 4.36, L 4.25, M 4.66, V 4.6, K 4.62, D 4.51, P 4.58, C 3.97, T 4.89, G 4.25, H 4.85, Q 4.87, F 4.33, A 4.45, E 4.41
K20: M 3.75, C 4.3, F 3.79, L 4.41, E 4.27, Q 4.55, R 4.4, T 3.92, H 4.4, P 3.77, A 4.43, G 4.39, D 4.44, I 3.61, S 4.56, N 4.41, V 3.66
S12: N 4.68, H 4.35, R 4.51, M 4.33, Q 4.66, P 4.34, V 4.8, T 4.07, D 4.67, Y 4.12, L 3.44, G 4.27, C 4.18, F 4.29, I 4.56, K 4.44, W 3.25, E 5.06
Q16: M 3.7, Y 3.99, H 4.44, T 4.53, D 4.24, G 4.51, E 4.69, A 4.7, P 4.94, N 4.73, W 3.34, K 4.03, C 4.39, S 4.91, V 4.71, L 4.32, F 4.05, R 5.25, I 4.35
R19: F 4.13, Q 4.62, A 4.61, S 4.71, P 4.77, K 4.33, D 4.66, I 4.61, E 4.86, L 4.58, V 4.71, C 4.27, W 3.6, T 4.57, Y 3.94, H 4.33, M 4.37, G 4.49, N 4.69
P17: R 4.2, S 4.21, G 4.71, E 4.96, K 4.61, F 4.24, Q 3.82, C 3.76, W 3.64, T 4.75, L 4.14, D 4.35, Y 4.05, H 4.26, M 4.56, V 4.67, A 3.6, N 4.72, I 3.87
